Measurements published in patent publication US20220251237A1 (R P SCHERER TECHNOLOGIES, published 2022).

Legend:
[1] = target: T1, human glypican-5 His-tagged protein (R&D Systems) (human, UniProt P78333 25-551, limits assumed); experiment: ELISA, plate coated with 1 µg/mL His-tagged glypican
T1 construct: Bought; not shown: His tag
T1 sequence (looked up): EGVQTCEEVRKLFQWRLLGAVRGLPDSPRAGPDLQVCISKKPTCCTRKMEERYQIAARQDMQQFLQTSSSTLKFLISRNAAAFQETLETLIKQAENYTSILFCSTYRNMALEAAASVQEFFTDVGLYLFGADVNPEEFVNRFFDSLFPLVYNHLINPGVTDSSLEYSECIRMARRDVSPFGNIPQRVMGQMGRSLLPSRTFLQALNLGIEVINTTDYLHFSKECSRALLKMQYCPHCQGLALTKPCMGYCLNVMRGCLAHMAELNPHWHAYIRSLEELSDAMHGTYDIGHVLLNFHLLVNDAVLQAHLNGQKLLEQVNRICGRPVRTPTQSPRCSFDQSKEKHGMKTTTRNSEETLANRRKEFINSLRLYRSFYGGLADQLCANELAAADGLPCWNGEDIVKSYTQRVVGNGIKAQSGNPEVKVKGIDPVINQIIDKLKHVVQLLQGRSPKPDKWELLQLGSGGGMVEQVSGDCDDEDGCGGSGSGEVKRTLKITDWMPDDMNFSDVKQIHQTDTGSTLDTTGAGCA
Method: (§1) To perform the ELISA, Maxisorp 96-well plates (Nunc) were coated overnight at 4° C. with 1 μg/mL of human glypican His-tagged proteins (glypican-1, glypican-2, glypican-3, glypican-5, and glypican-6 all from R&D Systems) in PBS. The plates were blocked with casein buffer (ThermoFisher), and then CAT-07 was plated in an 11-step series of 2-fold dilutions starting at 150 ng/mL. The plates was incubated, shaking, at room temperature for 2 h. After washing in PBS 0.1% Tween-20, bound analyte was detected with a donkey anti-human Fc-γ-specific horseradish peroxidase (HRP)-conjugated secondary antibody. Signals were visualized with Ultra TMB (Pierce) and quenched with 2 N H₂SO₄. Absorbance at 450 nm was determined using a Molecular Devices SpectraMax M5 plate reader and the data were analyzed using GraphPad Prism.

[2] = target: T2, human glypican-1 His-tagged protein (R&D Systems) (human, UniProt P35052 24-530, limits assumed); experiment: as above
T2 construct: Bought; not shown: His tag
T2 sequence (looked up): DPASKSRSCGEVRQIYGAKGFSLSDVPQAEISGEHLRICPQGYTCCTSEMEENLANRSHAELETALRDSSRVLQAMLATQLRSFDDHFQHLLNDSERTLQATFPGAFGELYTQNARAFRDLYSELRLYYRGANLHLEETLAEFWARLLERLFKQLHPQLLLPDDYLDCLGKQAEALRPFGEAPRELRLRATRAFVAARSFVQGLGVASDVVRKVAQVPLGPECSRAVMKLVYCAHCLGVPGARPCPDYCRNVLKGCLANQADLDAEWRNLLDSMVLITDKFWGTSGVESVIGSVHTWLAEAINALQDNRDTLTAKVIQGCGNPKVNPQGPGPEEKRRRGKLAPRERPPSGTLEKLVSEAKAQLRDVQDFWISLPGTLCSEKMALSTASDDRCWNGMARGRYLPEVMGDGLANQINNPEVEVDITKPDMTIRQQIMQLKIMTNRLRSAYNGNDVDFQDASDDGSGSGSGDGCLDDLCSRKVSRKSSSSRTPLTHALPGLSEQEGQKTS
Method: as §1

[3] = target: T3, human glypican-2 His-tagged protein (R&D Systems) (human, UniProt Q8N158 24-554, limits assumed); experiment: as above
T3 construct: Bought; not shown: His tag
T3 sequence (looked up): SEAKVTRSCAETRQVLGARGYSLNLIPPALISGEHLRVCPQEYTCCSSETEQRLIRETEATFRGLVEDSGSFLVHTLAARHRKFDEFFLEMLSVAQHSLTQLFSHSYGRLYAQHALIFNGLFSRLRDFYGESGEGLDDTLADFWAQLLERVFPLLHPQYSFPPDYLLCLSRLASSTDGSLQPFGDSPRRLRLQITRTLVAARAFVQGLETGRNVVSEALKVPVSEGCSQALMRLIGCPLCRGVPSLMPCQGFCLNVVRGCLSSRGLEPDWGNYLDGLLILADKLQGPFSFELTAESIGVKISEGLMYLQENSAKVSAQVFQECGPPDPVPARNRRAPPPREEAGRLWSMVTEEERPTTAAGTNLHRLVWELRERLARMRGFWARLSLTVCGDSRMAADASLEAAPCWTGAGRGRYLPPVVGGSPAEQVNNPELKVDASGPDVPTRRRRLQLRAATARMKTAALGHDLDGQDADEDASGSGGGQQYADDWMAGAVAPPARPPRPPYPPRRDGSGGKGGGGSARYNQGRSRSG
Method: as §1

[4] = target: T4, human glypican-6 His-tagged protein (R&D Systems) (human, UniProt Q9Y625 24-529, limits assumed); experiment: as above
T4 construct: Bought; not shown: His tag
T4 sequence (looked up): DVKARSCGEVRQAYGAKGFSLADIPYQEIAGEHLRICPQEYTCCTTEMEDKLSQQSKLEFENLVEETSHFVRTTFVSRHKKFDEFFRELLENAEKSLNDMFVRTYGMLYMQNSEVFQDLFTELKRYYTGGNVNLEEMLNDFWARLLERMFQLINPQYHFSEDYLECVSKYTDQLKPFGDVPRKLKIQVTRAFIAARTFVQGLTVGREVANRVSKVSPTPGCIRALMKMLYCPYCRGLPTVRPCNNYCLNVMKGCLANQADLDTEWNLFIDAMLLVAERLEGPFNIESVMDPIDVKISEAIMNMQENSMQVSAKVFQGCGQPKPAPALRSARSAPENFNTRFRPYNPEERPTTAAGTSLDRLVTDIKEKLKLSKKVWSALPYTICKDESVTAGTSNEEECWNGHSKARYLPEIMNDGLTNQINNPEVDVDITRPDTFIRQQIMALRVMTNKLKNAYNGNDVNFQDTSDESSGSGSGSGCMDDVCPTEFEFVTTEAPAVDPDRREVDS
Method: as §1

[5] = target: T5, human glypican-3-His (R&D Systems) (human, UniProt P51654 25-559); experiment: ELISA, plate coated with 1 µg/mL human glypican-3-His
T5 construct: Bought His-tagged protein; also called recombinant human glypican-3 protein; GPC3; not shown: His tag
T5 sequence (P51654 25-559 limits assumed): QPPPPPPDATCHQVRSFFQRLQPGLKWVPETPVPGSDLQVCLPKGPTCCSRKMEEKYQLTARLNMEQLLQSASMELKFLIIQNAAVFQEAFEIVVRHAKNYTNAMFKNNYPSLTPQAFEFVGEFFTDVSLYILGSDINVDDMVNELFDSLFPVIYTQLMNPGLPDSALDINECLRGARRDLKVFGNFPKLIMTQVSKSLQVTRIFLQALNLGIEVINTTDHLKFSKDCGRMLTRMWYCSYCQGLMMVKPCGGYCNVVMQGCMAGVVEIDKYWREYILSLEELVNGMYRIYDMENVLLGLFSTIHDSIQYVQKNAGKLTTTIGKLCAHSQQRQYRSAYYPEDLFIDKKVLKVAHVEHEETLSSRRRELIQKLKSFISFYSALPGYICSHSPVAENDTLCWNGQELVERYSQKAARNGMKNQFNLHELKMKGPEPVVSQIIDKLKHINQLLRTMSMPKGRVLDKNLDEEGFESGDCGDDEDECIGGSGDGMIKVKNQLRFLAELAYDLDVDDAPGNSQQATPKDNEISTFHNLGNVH
Method: as §1, with “human glypican-3-His (R&D” for “human glypican His-tagged proteins (glypican-1, glypican-2, glypican-3, glypican-5, and glypican-6 all from R&D”, “The plate was” for “The plates were”, “The plate” for “The plates”

binding result [5]: binds
B1: CAT-07 monoclonal antibody (antibody, human IgG1, kappa, V domains shown)
VH: QVQLVQSGAEVKKPGASVKVSCKASGYTFTSYFLHWVRQAPGQGLEWMGIIDPPTGRTTYAQKFQGRVTMTRDTSTSTVYMELSSLRSEDTAVYYCARGNYGGRYFDYWGQGTLVTVSS
VL: not shown
binding result [1]: no binding (tested: 2-fold dilutions starting at 150 ng/mL) | binding result [2]: no binding (tested: 2-fold dilutions starting at 150 ng/mL) | binding result [3]: no binding (tested: 2-fold dilutions starting at 150 ng/mL) | binding result [4]: no binding (tested: 2-fold dilutions starting at 150 ng/mL)
